# From publication PMC6007000 (Nature genetics, 2017)
# Non-standard residues stand in square brackets, D forms with d. Residues, ends and D or L forms follow the SMILES beside them. No end group written: not given here. Lys(Me3) = C[N+](C)(C)CCCC[C@H](N)C(=O)O
# Columns and labels:
# [1] = target: PHD1-2 region of human BAF45c (DPF3), residues 254–368 (human) (UniProt Q92784); experiment: ITC
# [2] = target: BAF45c (residues 254–368), PHD1-2 region of DPF3 (Homo sapiens, UniProt Q92784); experiment: Isothermal titration calorimetry of H3 tail peptides with DPF3; type: binding
# Chain of BAF45c (residues 254–368), PHD1-2 region of DPF3 (Q92784 254-368): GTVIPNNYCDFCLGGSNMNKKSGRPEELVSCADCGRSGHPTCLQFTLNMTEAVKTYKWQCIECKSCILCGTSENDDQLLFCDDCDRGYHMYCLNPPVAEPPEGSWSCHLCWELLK
# Chain of PHD1-2 region of human BAF45c (DPF3), residues 254–368 (human) (Q92784 254-368): as above
Compound,Kd [1] [µM],Kd [2] [µM]
CC(=O)NCCCC[C@H](NC(=O)CNC(=O)CNC(=O)[C@@H](NC(=O)[C@H](CO)NC(=O)[C@H](CCCCN)NC(=O)[C@H](CCCNC(=N)N)NC(=O)[C@H](C)NC(=O)[C@H](CCCNC(=N)N)NC(=O)[C@@H](NC(=O)[C@H](CCC(N)=O)NC(=O)[C@H](CCCC[N+](C)(C)C)NC(=O)[C@@H](NC(=O)[C@H](CCCNC(=N)N)NC(=O)[C@H](C)N)[C@@H](C)O)[C@@H](C)O)[C@@H](C)O)C(=O)N[C@@H](C)C(=O)N1CCC[C@H]1C(=O)N[C@@H](CCCNC(=N)N)C(=O)N[C@@H](CCCCN)C(=O)O [H3K4me3/K14ac] (H-ART[Lys(Me3)]QTRARKSTGGK(Ac)APRK-OH),,115
ARTKQTRARKSTGGK(Ac)APRK [H3K4me0/K14ac],,7.8

# Continued, in another order:
Kd [1] [µM],Compound,Kd [2] [µM]
7.8,"H3K14Ac peptide (H3 tail, H3K4me0 and H3K14ac)",
115,"H3K4me3K14Ac peptide (H3 tail, H3K4me3 and H3K14ac)",
20,"H3K4me1K14Ac peptide (H3 tail, H3K4me1 and H3K14ac)",
